# In patent US20220089698A1 (published 2022):
# Numbering of substitutions follows the chain as printed.
# B1: 1.1.35-1 (antibody, human IgG1, kappa, V domains shown)
# VH: QVQLLQSGAAVTKPGASVRVSCEASGYNIRDYFIHWWRQAPGQGLQWVGWINPKTGQPNNPRQFQGRVSLTRHASWDFDTFSFYMDLKALRSDDTAVYFCARQRSDYWDFDVWGSGTQVTVSS
# VL: DIQMTQSPSSLSASVGDRVTITCQANGYLNWYQQKPGKAPKLLIYDGSNLETGVPSRFSGSRWGQEYTLTISSLQPEDIATYFCQVYEFVGPGTNLDIKR
# B2: 1.32.35-1 (antibody, human IgG1, kappa, V domains shown)
# VH: B1 VH with L5V, A10E, S105T
# VL: B1 VL
# B3: 1.33.35-1 (antibody, human IgG1, kappa, V domains shown)
# VH: B1 VH with L5V, A10E, T12K, E23K, S69T, V97T
# VL: B1 VL
# B4: 1.34.35-1 (antibody, human IgG1, kappa, V domains shown)
# VH: B1 VH with L5V, A10E, T12K, E23K, S69T, S105T
# VL: B1 VL
# B5: 1.31.35-1 (antibody, human IgG1, kappa, V domains shown)
# VH: B1 VH with L5V, A10E, V97T
# VL: B1 VL
# B6: 1.31.31-1 (antibody, human IgG1, kappa)
# heavy: QVQLVQSGAEVTKPGASVRVSCEASGYNIRDYFIHWWRQAPGQGLQWVGWINPKTGQPNNPRQFQGRVSLTRHASWDFDTFSFYMDLKALRSDDTATYFCARQRSDYWDFDVWGSGTQVTVSSASTKGPSVFPLAPSSKSTSGGTAALGCLVKDYFPEPVTVSWNSGALTSGVHTFPAVLQSSGLYSLSSVVTVPSSSLGTQTYICNVNHKPSNTKVDKKVEPKSCDKTHTCPPCPAPELLAGPDVFLFPPKPKDTLMISRTPEVTCVVVDVSHEDPEVKFNWYVDGVEVHNAKTKPREEQYNSTYRVVSVLTVLHQDWLNGKEYKCKVSNKALPLPEEKTISKAKGQPREPQVYTLPPSREEMTKNQVSLTCLVKGFYPSDIAVEWESNGQPENNYKTTPPVLDSDGSFFLYSKLTVDKSRWQQGNVFSCSVLHEALHSHYTQKSLSLSPGK
# light: DIQMTQSPSSLSASVGDTVTITCQANGYLNWYQQRRGKAPKLLIYDGSKLERGVPSRFSGRRWGQEYTLTISSLQPEDIATYFCQVYEFVVPGTNLDLKRTVAAPSVFIFPPSDEQLKSGTASVVCLLNNFYPREAKVQWKVDNALQSGNSQESVTEQDSKDSTYSLSSTLTLSKADYEKHKVYACEVTHQGLSSPVTKSFNRGEC
# B7: 1.33.33-1 (antibody, human IgG1, kappa)
# heavy: B6 heavy with T12K, E23K, S69T
# light: B6 light with K49N, L98I
# B8: 1.32.31-1 (antibody, human IgG1, kappa)
# heavy: B6 heavy with T97V, S105T
# light: B6 light
# B9: 1.34.32-1 (antibody, human IgG1, kappa)
# heavy: B6 heavy with T12K, E23K, S69T, T97V, S105T
# light: B6 light with V91T, N95R
# B10: 1.34.34-1 (antibody, human IgG1, kappa)
# heavy: B6 heavy with T12K, E23K, S69T, T97V, S105T
# light: B6 light with K49N, V91T, N95R, L98I
# B11: 1.35.34-1 (antibody, human IgG1, kappa)
# heavy: B6 heavy with T12K, E23K, I34M, S69T, L70M, K88S, A89R, S105T, S115Q, Q118M
# light: B6 light with K49N, V91T, N95R, L98I
# B12: 1.35.33-1 (antibody, human IgG1, kappa)
# heavy: B6 heavy with T12K, E23K, I34M, S69T, L70M, K88S, A89R, S105T, S115Q, Q118M
# light: B6 light with K49N, L98I
# B13: 1.33.31-1 (antibody, human IgG1, kappa)
# heavy: B6 heavy with T12K, E23K, S69T
# light: B6 light
# B14: 1.32.32-1 (antibody, human IgG1, kappa)
# heavy: B6 heavy with T97V, S105T
# light: B6 light with V91T, N95R
# B15: 1.36.34-1 (antibody, human IgG1, kappa)
# heavy: QVQLVQSGAEVKKPGASVRVSCKASGYNIRDYFMHWWRQAPGQGLQWVGWINPKTGQPNNPRQFQGRVTMTRHASWDFDTFSAYMDLSRLRSDDTATYFCARQRTDYWDFDVWGQGTMVTVSSASTKGPSVFPLAPSSKSTSGGTAALGCLVKDYFPEPVTVSWNSGALTSGVHTFPAVLQSSGLYSLSSVVTVPSSSLGTQTYICNVNHKPSNTKVDKKVEPKSCDKTHTCPPCPAPELLAGPDVFLFPPKPKDTLMISRTPEVTCVVVDVSHEDPEVKFNWYVDGVEVHNAKTKPREEQYNSTYRVVSVLTVLHQDWLNGKEYKCKVSNKALPLPEEKTISKAKGQPREPQVYTLPPSREEMTKNQVSLTCLVKGFYPSDIAVEWESNGQPENNYKTTPPVLDSDGSFFLYSKLTVDKSRWQQGNVFSCSVLHEALHSHYTQKSLSLSPGK
# light: B6 light with K49N, V91T, N95R, L98I
# B16: 1.1.33-1 (antibody, human IgG1, kappa)
# heavy: B6 heavy with V5L, E10A, T97V
# light: B6 light with K49N, L98I
# B17: 1.34.31-1 (antibody, human IgG1, kappa)
# heavy: B6 heavy with T12K, E23K, S69T, T97V, S105T
# light: B6 light
# B18: 1.36.32-1 (antibody, human IgG1, kappa)
# heavy: B15 heavy
# light: B6 light with V91T, N95R
# B19: 1.31.34-1 (antibody, human IgG1, kappa)
# heavy: B6 heavy
# light: B6 light with K49N, V91T, N95R, L98I
# B20: 1.35.32-1 (antibody, human IgG1, kappa)
# heavy: B15 heavy with A83F
# light: B6 light with V91T, N95R
# B21: 1.33.32-1 (antibody, human IgG1, kappa)
# heavy: B6 heavy with T12K, E23K, S69T
# light: B6 light with V91T, N95R
# B22: 1.33.34-1 (antibody, human IgG1, kappa)
# heavy: B6 heavy with T12K, E23K, S69T
# light: B6 light with K49N, V91T, N95R, L98I
# B23: 1.31.33-1 (antibody, human IgG1, kappa)
# heavy: B6 heavy
# light: B6 light with K49N, L98I
# B24: 1.1.34-1 (antibody, human IgG1, kappa)
# heavy: B6 heavy with V5L, E10A, T97V
# light: B6 light with K49N, V91T, N95R, L98I
# B25: 1.34.33-1 (antibody, human IgG1, kappa)
# heavy: B6 heavy with T12K, E23K, S69T, T97V, S105T
# light: B6 light with K49N, L98I
# B26: 1.35.31-1 (antibody, human IgG1, kappa)
# heavy: B15 heavy with A83F
# light: B6 light
# B27: 1.32.34-1 (antibody, human IgG1, kappa)
# heavy: B6 heavy with T97V, S105T
# light: B6 light with K49N, V91T, N95R, L98I
# B28: 1.31.32-1 (antibody, human IgG1, kappa)
# heavy: B6 heavy
# light: B6 light with V91T, N95R
# B29: 1.32.33-1 (antibody, human IgG1, kappa)
# heavy: B6 heavy with T97V, S105T
# light: B6 light with K49N, L98I
# B30: 1.1.32-1 (antibody, human IgG1, kappa)
# heavy: B6 heavy with V5L, E10A, T97V
# light: B6 light with V91T, N95R
# Assays:
# HIV gp120 Bal = HIV gp120 Bal (HIV); assay: single-point ELISA; also: test concentration or dose not given here
# HIV gp120 CAAN = HIV gp120 CAAN (HIV); assay: single-point ELISA; also: test concentration or dose not given here
binder,measurement,setting,value
B1,ELISA (A450),HIV gp120 Bal,0.96 A450
same,ELISA (A450),HIV gp120 CAAN,0.75 A450
B2,ELISA (A450),HIV gp120 Bal,0.89 A450
same,ELISA (A450),HIV gp120 CAAN,0.59 A450
B3,ELISA (A450),HIV gp120 Bal,1.03 A450
same,ELISA (A450),HIV gp120 CAAN,0.81 A450
B4,ELISA (A450),HIV gp120 Bal,0.94 A450
same,ELISA (A450),HIV gp120 CAAN,0.77 A450
B5,ELISA (A450),HIV gp120 Bal,0.9 A450
same,ELISA (A450),HIV gp120 CAAN,0.77 A450
B6,ELISA (A450),HIV gp120 Bal,0.98 A450
same,ELISA (A450),HIV gp120 CAAN,1.02 A450
B7,ELISA (A450),HIV gp120 Bal,1.09 A450
same,ELISA (A450),HIV gp120 CAAN,1.06 A450
B8,ELISA (A450),HIV gp120 Bal,0.95 A450
same,ELISA (A450),HIV gp120 CAAN,0.9 A450
B9,ELISA (A450),HIV gp120 Bal,0.93 A450
same,ELISA (A450),HIV gp120 CAAN,0.97 A450
B10,ELISA (A450),HIV gp120 Bal,0.89 A450
same,ELISA (A450),HIV gp120 CAAN,0.88 A450
B11,ELISA (A450),HIV gp120 Bal,1 A450
same,ELISA (A450),HIV gp120 CAAN,0.85 A450
B12,ELISA (A450),HIV gp120 Bal,0.9 A450
same,ELISA (A450),HIV gp120 CAAN,0.91 A450
B13,ELISA (A450),HIV gp120 Bal,0.92 A450
same,ELISA (A450),HIV gp120 CAAN,1.18 A450
B14,ELISA (A450),HIV gp120 Bal,0.89 A450
same,ELISA (A450),HIV gp120 CAAN,0.9 A450
B15,ELISA (A450),HIV gp120 Bal,1.01 A450
same,ELISA (A450),HIV gp120 CAAN,0.43 A450
B16,ELISA (A450),HIV gp120 Bal,0.87 A450
same,ELISA (A450),HIV gp120 CAAN,0.94 A450
B17,ELISA (A450),HIV gp120 Bal,0.91 A450
same,ELISA (A450),HIV gp120 CAAN,0.92 A450
B18,ELISA (A450),HIV gp120 Bal,0.96 A450
same,ELISA (A450),HIV gp120 CAAN,0.5 A450
B19,ELISA (A450),HIV gp120 Bal,0.76 A450
same,ELISA (A450),HIV gp120 CAAN,0.86 A450
B20,ELISA (A450),HIV gp120 Bal,0.96 A450
same,ELISA (A450),HIV gp120 CAAN,1.01 A450
B21,ELISA (A450),HIV gp120 Bal,0.98 A450
same,ELISA (A450),HIV gp120 CAAN,1.13 A450
B22,ELISA (A450),HIV gp120 Bal,0.95 A450
same,ELISA (A450),HIV gp120 CAAN,0.95 A450
B23,ELISA (A450),HIV gp120 Bal,0.89 A450
same,ELISA (A450),HIV gp120 CAAN,0.86 A450
B24,ELISA (A450),HIV gp120 Bal,0.9 A450
same,ELISA (A450),HIV gp120 CAAN,0.96 A450
B25,ELISA (A450),HIV gp120 Bal,1.1 A450
same,ELISA (A450),HIV gp120 CAAN,1.04 A450
B26,ELISA (A450),HIV gp120 Bal,1.05 A450
same,ELISA (A450),HIV gp120 CAAN,0.99 A450
B27,ELISA (A450),HIV gp120 Bal,0.81 A450
same,ELISA (A450),HIV gp120 CAAN,0.86 A450
B28,ELISA (A450),HIV gp120 Bal,0.98 A450
same,ELISA (A450),HIV gp120 CAAN,1.04 A450
B29,ELISA (A450),HIV gp120 Bal,0.93 A450
same,ELISA (A450),HIV gp120 CAAN,0.68 A450
B30,ELISA (A450),HIV gp120 Bal,0.93 A450
same,ELISA (A450),HIV gp120 CAAN,1.04 A450
